Values of other authors in paper PMC10219982.

Target: Follistatin (UniProt P19883)
Experiment: SPR

Chain of UniProt P19883 (P19883 30-344): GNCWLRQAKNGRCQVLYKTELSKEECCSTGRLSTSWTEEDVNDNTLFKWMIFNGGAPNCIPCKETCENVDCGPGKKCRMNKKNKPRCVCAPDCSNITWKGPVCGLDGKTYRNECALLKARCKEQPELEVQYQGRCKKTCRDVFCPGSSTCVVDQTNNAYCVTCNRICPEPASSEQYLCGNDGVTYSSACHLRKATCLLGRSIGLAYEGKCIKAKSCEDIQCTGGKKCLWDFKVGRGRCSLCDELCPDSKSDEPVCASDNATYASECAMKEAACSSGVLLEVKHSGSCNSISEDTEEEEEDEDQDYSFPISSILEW

- Kd: 22.5 nM
Substance: BMP4 (from UniProt P12644)
